The results in this text go back to patent US20160115467A1 (Biogen, published 2016).

Sequences and labels used below:
B1: 28F4 (antibody, V domains shown)
VH: EVQLVESGGDLVKPGGSLKLSCAASGFTFSNYGMSWVRQTPDKRLEWVATISSGGTYTYYPDSVKGQFTIFRDNAKNTLYLQMSSLKSEDTAMYYCTRRDYDYEGFAYWGQGTLVTVS
VL: DIVLTQSPATLSVTPGDSVSLSCRASQSISNNLHWYQQKSHESPRLLIKYASHSISGIPSRFSGSGSGTDFTLSINSVETEDFGMYFCQQSNNWPFTFGSGTKLEIKR
notes: Mouse monoclonal from BALB/c hybridoma, tested as hybridoma supernatant; also called 28F4 antibody
B2: 34D10 (antibody, V domains shown)
VH: EVKLVESGGGLVKPGGSLKLSCAASGFTFSAYAMSWVRQTPEKRLEWVASISSGGTTYYPDSVKRRFTISRDNARNILYLQMSSLRSEDTAMYYCTRGGDYGYALDYWGQGTSVTVSS
VL: ENVLTQSPAIMSASLGEKVTMSCRASSSVNYMYWYQQKSDASPKLWIYYTSNLAPGVPARFSGSGSGNSYSLTISSMEGEDAATYYCQQFSSSPWTFGGGTKLEIKR
notes: Mouse monoclonal from BALB/c hybridoma, tested as hybridoma supernatant (detected with anti-mouse IgG); also called monoclonal antibody 34D10; 34D10 antibody
B3: 4B11 (antibody, V domains shown)
VH: EVKLVESGGGLVKPGGSLKLSCAASGFTFSSYAMSWVRQTPEKRLAWVASISSGGNIYFPDSVKGRFTISRDDARNILYLQMRSLRSEDTAMYYCARGGDYGYAMDYWGQGTSVTVSS
VL: ENVLTQSPAIMSASLGEKVTMNCRASSSVNYMYWYQQKSDASPKLWIFYTSNLAPGVPARFSGSGSGNSYSLTISSMEGEDAATYYCQQFSSSPWTFGGGSKLEIKR
notes: Mouse monoclonal from BALB/c hybridoma, tested as hybridoma supernatant; also called 4B11 antibody
B4: 36A8 (antibody, V domains shown)
VH: EVRLVESGGGLVKPGGSLKLSCAASGFTFSTYAMSWVRQTPEKRLEWVASINGGGSTYYPDSVKGRFTISRDNARNILYLQMRSLRSEDTAMYYCARGGDYGYALDYWGQGTSVTVSS
VL: ENVLTQSPAIMSASLGEKVTMNCRASSSVNYMYWYQQKSDASPKLWIFYTSNLAPGVPARFSGSGSGNSYSLTISSMEGEDAATYYCQQFSSSPWTFGGGSKLEIKR
notes: Mouse monoclonal from BALB/c hybridoma, tested as hybridoma supernatant; also called 36A8 antibody
B5: 18F7 (antibody, V domains shown)
VH: QVQLKESGPGLVAPSQSLSITCTVSGFSLTSYGVSWVRQPPGKGLEWLGIIWGDGSTNYHSVLKSRLSISKDNSKSQVFLKLNSLQTDDTATYYCAKQDFDVWGAGTTVTVSS
VL: DVQMIQSPFSLSASLGDIVTMTCQASQGTSINLNWFQQKPGKAPKLLIYGVSNLEDGVPSRFSGSRYGTDFTLTIGSLEDEDMATYFCLQHSYLPYTFGGGTKLEIKR
notes: Mouse monoclonal from BALB/c hybridoma, tested as hybridoma supernatant; also called 18F7 antibody
B6: 28C2 (antibody, V domains shown)
VH: QVTLKASGPGIVQPSQTLSLTCSFSGFSLNTSGMGVGWIRQPSGKGLEWLAHIWWDDDKRYNPALKSRLTISKDTSNNQIFLKIASVDTADTATYYCARSHYYGTFYFDYWGQGTTLTVSS
VL: DVQITQSPSYLAASPGETITINCRASKSISKYLAWYQEKPGTTYKLLIYSGSTLQSGIPSRFSGSGSGTDFTLTISSLEPEDFAMYYCQQHIEYPWTFGGGTKLEIKR
notes: Mouse monoclonal from BALB/c hybridoma, tested as hybridoma supernatant; also called 28C2 antibody
B7: 9D6 (antibody, V domains shown)
VH: QVTLKESGPGILQPSQTLSLTCSFSGFSLSTSGMGVGWIRQSSGKGLEWLAHIWWDDDKRYNPTLKSRLTISKDTSNNQVFLKIANMDTADIATYYCARSHYNGTFYFDFWGQGITLTVSS
VL: DVQITQSPSYLAASPGETITINCRASKSISKYLAWYQEKPGKTNKLLIYSGSTLQSGIPSRFSGSGSGTDFTLTISTLEPEDFAMYYCQQHIEYPWTFGGGTKLEIKR
notes: Mouse monoclonal from BALB/c hybridoma, tested as hybridoma supernatant; also called 9D6 antibody
B8: 12B2 (antibody, V domains shown)
VH: QVQLQQSGAELTKPGASVKISCKATGYTFSSYWIEWVKQRPGHGLEWIGEILPGSGITKYNDKFKGKATFTADTSSNTAYMQLSSLTSEDSAVYSCARLISYYYAMDYWGQGTSVTVSS
VL: DIQMTQTTSSLSASLGDRVTISCRASQDISNYLNWYQQKPDGTVKLLIYYTSRLHSGVPSRFSGSGSGTDYSLTISNLEQEDIATYFCQQGNTLPPTFGGGTKLEIKR
notes: Mouse monoclonal from BALB/c hybridoma, tested as hybridoma supernatant; also called 12B2 antibody
B9: 1H6 (antibody, V domains shown)
VH: QVQLQQSGAELVRPGTSVKVSCKASGYAFTNYLIEWVKQRPGQGLEWIGVINPGSGGTNYNEKFKGKATLTADKSSSTAYMHLSSLTSDDSAVYFCARGRYEWYFDVWGAGTTVTVSS
VL: DIQMTQTTSSLSASLGDRVTISCRASQDITNYLNWYQRKPDGTVKLLIYYTSRLHSGVPSRFSGSGSGTDYSLTISNLEQEDIATYFCQQGYTLPYTFGGGTKLEIKR
notes: Mouse monoclonal from BALB/c hybridoma, tested as hybridoma supernatant; also called 1H6 antibody
B10: 38A8 (antibody, V domains shown)
VH: QVQLQQSGAELVRPGTSVKVSCKASGYAFTNYLIEWIKQRPGQGLEWIGVINPGSGGTNYNEKFKGKATLTADKSSSTAYMQLSSLTSDDSAVYFCARGRYEWYFDVWGAGTTVTVSS
VL: DIQMTQTTSSLSASLGDRVTISCRASQDISNYLNWYLQKPDGTVKLLIYYTSRLHSGVPSRFSGSGSGTDYSLSISNLEQEDIATYFCQQGYTLPYTFGGGTKLEIKR
notes: Mouse monoclonal from BALB/c hybridoma, tested as hybridoma supernatant; also called 38A8 antibody
B11: rFVIIa (enzyme)
chain 1: ANAFLEELRPGSLERECKEEQCSFEEAREIFKDAERTKLFWISYSDGDQCASSPCQNGGSCKDQLQSYICFCLPAFEGRNCETHKDDQLICVNENGGCEQYCSDHTGTKRSCRCHEGYSLLADGVSCTPTVEYPCGKIPILEKRNASKPQGR
chain 2: IVGGKVCPKGECPWQVLLLVNGAQLCGGTLINTIWVVSAAHCFDKIKNWRNLIAVLGEHDLSEHDGDEQSRRVAQVIIPSTYVPGTTNHDIALLRLHQPVVLTDHVVPLCLPERTFSERTLAFVRFSLVSGWGQLLDRGATALELMVLNVPRLMTQDCLQQSRKVGDSPNITEYMFCAGYSDGSKDSCKGDSGGPHATHYRGTWYLTGIVSWGQGCATVGHFGVYTRVSQYIEWLQKLMRSEPRPGVLLRAPFP
notes: Control without targeting moiety

T2 sequence (Q9QUM0 32-1033, chain 1 of 2): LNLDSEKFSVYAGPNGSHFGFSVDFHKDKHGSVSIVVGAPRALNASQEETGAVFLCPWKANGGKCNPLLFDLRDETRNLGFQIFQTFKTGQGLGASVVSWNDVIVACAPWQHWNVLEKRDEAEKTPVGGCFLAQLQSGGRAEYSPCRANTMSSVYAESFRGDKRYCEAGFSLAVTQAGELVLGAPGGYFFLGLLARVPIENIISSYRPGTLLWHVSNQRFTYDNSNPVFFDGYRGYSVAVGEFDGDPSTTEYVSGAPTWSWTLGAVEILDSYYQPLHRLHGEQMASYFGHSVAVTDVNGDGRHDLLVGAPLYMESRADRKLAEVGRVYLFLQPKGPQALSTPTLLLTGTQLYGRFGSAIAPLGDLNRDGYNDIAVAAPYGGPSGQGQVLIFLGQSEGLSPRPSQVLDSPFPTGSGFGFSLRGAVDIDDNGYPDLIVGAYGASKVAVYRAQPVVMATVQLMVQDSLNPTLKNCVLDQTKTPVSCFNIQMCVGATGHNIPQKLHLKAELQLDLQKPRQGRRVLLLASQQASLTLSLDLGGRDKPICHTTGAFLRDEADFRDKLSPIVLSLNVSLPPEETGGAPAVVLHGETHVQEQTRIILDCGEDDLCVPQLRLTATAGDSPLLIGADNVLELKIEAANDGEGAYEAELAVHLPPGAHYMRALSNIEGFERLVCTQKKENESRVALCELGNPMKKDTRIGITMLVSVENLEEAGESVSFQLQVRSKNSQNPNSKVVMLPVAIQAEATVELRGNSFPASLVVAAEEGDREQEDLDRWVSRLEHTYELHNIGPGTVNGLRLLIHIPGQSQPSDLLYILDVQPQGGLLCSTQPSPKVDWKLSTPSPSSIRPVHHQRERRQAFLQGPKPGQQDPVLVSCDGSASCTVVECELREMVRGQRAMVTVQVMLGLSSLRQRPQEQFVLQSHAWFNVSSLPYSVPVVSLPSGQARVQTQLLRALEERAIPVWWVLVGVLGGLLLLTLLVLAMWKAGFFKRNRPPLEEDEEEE
T2 sequence (O54890 26-787, chain 2 of 2): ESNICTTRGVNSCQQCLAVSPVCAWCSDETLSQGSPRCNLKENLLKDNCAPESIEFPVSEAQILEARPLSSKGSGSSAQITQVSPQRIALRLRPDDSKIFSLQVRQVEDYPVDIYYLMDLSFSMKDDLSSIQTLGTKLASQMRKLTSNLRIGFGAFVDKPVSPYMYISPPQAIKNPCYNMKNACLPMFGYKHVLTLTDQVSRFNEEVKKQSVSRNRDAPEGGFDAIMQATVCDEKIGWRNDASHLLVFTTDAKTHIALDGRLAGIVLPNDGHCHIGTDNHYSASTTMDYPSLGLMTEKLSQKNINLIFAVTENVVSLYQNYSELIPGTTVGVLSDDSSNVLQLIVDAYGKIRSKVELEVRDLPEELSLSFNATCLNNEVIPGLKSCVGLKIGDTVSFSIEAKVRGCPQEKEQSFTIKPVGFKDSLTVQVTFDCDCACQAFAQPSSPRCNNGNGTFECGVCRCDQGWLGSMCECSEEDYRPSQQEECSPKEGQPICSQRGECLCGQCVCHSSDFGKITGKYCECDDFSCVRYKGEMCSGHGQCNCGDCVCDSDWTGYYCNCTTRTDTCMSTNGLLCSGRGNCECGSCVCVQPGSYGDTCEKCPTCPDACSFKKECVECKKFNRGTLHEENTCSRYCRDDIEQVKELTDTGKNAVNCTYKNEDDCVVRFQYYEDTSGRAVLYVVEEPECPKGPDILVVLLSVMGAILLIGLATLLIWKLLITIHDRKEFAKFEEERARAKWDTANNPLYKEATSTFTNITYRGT

The target in the first experiment is T1, human GPIIb/IIIa on human platelets (human, UniProt P08514 32-1039; P05106 27-788).
T1 construct: Native receptor on gel-purified human platelets or platelets in diluted human whole blood; also called platelets in human whole blood
Description: flow cytometry, hybridoma supernatant on human platelets.
Description: Hybridomas were then screened for binding to human and cynomolgus monkey platelets using flow cytometry, and for binding to GPIIb/IIIa using Enzyme-linked immunosorbent assays (ELISA). To determine binding to human and money platelets, gel-purified human or monkey (cynomolgus) platelets in Tyrode's buffer were incubated with hybridoma supernatant. Following a 30 minute incubation, cells were fixed in 1% formaldehyde. Following fixation, cells were washed in Tyrode's buffer and a detection antibody was added (Jackson Immunoresearch goat anti-mouse IgG-PE conjugated). Antibody binding was detected by flow cytometry.
Take B1: the binding result is given as “binds”.
Turning to B2, the binding result is on record as “binds”.
Consider B3, for which the binding result is reported as “binds”.
The same measure, in the same setting: to B4 belongs “binds”; to B5, “binds”; to B6, “binds”.
On the same count and under the same terms, in the case of B7 it was “binds”; in that of B8, “binds”.
On the same count and under the same terms, in the case of B9 it was “binds”; in that of B10, “binds”.

The target of a further experiment is T1, human GPIIb/IIIa on human platelets. The experiment can be described thus: flow cytometry, protein spiked in diluted (1:50) human whole blood, FITC-anti-FVII on CD42b-stained platelets.
Consider B11, for which the binding result is given as “no binding”.

A further experiment concerns the target T2, mouse platelets (mouse GPIIb/IIIa) (mouse, UniProt Q9QUM0 32-1033; O54890 26-787).
T2 construct: whole, on cells; the receptor is inferred from the antibody's target
The experiment can be described thus: binding to platelets in mouse blood (method not detailed; flow cytometry implied).
B2: the binding result is on record as “no binding”.
